Data: patent US20100280095A1 (RIKEN, published 2010)

Target: T1, endogenous Smad4 of 293T cells (UniProt Q13485 1-552)
T1 sequence (looked up): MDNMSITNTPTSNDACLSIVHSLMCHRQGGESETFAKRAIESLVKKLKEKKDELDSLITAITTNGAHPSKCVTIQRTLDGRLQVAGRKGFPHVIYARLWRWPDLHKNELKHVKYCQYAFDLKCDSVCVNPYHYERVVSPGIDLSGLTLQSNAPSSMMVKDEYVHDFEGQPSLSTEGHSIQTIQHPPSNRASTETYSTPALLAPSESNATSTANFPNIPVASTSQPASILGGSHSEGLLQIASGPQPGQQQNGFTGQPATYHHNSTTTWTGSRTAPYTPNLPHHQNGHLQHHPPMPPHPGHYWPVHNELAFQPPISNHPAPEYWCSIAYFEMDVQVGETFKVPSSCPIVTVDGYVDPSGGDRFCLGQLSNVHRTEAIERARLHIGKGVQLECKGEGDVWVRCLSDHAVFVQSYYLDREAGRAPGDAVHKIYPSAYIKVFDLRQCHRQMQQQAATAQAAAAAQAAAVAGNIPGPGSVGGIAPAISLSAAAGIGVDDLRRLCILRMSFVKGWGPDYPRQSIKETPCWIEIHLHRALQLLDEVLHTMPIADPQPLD
Test: co-immunoprecipitation: anti-c-Myc IP of 293T whole cell extract, immunoblot with anti-Smad4
Excerpt: (a) An interaction between c-Myc-tagged PDLIM2 and an endogenous Smad transcription factors; 293T cells were transfected with or without a c-Myc-tagged PDLIM2 expression plasmid (c-Myc PDLIM2) and treated to obtain whole cell extracts, which were immunoprecipitated (IP) with anti-c-Myc antibody, and immunoblotted (IB) with anti-Smad2, 3 or 4 antibody. (b) Luciferase activity in mouse embryonic fibroblasts; with or without a plasmid that encodes PDLIM2, the cells were transfected with a plasmid that encodes a TARE luciferase reporter (pTARE-Luc), after which the cells were stimulated with human TGFβ (10 ng/ml) for 6 hours and assayed.
All lysis buffers used for immunoblot analysis contained a proteinase inhibitor cocktail (Roche). Cytoplasmic and nuclear extracts were prepared as follows. Cells were lysed on ice for 10 min with hypotonic buffer (20 mM HEPES pH 8.0, 10 mM KCl, 1 mM MgCl₂, 0.1% Triton X-100, 20% glycerol). After centrifugation (5,000 rpm, 1 min), supernatants were collected and used as cytoplasmic fractions. The pellets were next lysed on ice for 20 min after brief vortexing with hypertonic buffer (20 mM HEPES pH 8.0, 1 mM EDTA, 20% glycerol, 0.1% Triton X-100, 400 mM NaCl). After centrifugation (15,000 rpm, 5 min), supernatants were collected and used as nuclear fractions. […]

binding result: no binding
B1: c-Myc-tagged PDLIM2 (murine Pdlim2 coding region in pCMV-Myc) (enzyme)
chain: MALTVDVAGPAPWGFRISGGRDFHTPIIVTKVTERGKAEAADLRPGDIIVAINGQSAENMLHAEAQSKIRQSASPLRLQLDRSQTASPGQTNGEGSLEVLATRFQGSLRTHRDSQSSQRSACFSPVSLSPRPCSPFSTPPPTSPVALSKEDMIGCSFQSLTHSPGLAAAHHLTYPGHPTSQQAGHSSPSDSAVRVLLHSPGRPSSPRFSSLDLEEDSEVFKMLQENRQGRAAPRQSSSFRLLQEALEAEERGGTPAFVPSSLSSQASLPTSRALATPPKLHTCEKCSVNISNQAVRIQEGRYRHPGCYTCADCGLNLKMRGHFWVGNELYCEKHARQRYSMPGTLNSRA
notes: Expressed in 293T cells and tested in whole cell extracts; also called c-Myc PDLIM2; PDZ and LIM domain protein-2; not shown: c-Myc tag from vector pCMV-Myc (Clontech)
